The series in a line: yeast display, Sf9 membrane polyspecificity reagent, FACS + sequencing; frameworks hold sequencing errors. Put shortly:
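Nanobodies came from a synthetic yeast display library in Saccharomyces cerevisiae BJ5465, induced with galactose for 36–48 hours and stained for 1 hour at 4 °C with 10% biotinylated, detergent-solubilized Sf9 membrane reagent. Cells were enriched on streptavidin microbeads and then FACS-sorted, with low and high (top ~1%) gates set on anti-HA fluorescence for expression and streptavidin fluorescence for reagent binding. Each polyreactivity label reflects the gate a clone came from. Genes were amplified by colony PCR, sequenced by MiSeq 2 × 250 and filtered by CDR length.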
On to “QVQLVESGGGLDQAGGSLRLSCAASGLTFQLYTMGWYRQAHGKERELVAAISRSGTRTYYADSVKGRFTISLDNAKNTVYLQMNSLKPEDTAVYYCAARTDGYRNNYWGQGTQVTVSS”, for which the “polyreactivity (PSR sort gate)” value is listed as “high polyreactivity”.

Regarding “QVQLVESGGGLVQAGGSLRLSCAASVSTIGTYAMGWYRQAPGKERELVAAISTGGSTYYADSVKGRFTISRANAKNTVHLQMNSLKPEDTAVYYCAALADYVRRASDYWGQGTQVTVSS”, the “polyreactivity (PSR sort gate)” value was “low polyreactivity”.

In the case of “QVQLVESGGGLVQAGGSLRLSCAASGSILFANAMGWYRQAPGKERELVAAIRGSGSTYYADSVKGRFTISRDNAKNTVYLQMNSLKPEDTAVYYCAKRHLISIPDYGRHEYDYWGQGTQVTVSS”, the “polyreactivity (PSR sort gate)” value is “low polyreactivity”.

Take “QVQIVDSCGGLVQSGGSLRLSCDASGSTFLTNSMGWYRQAPGKERELVAAITLRGGRTYYADSVKGRFTISRDNALNTVYLQMNSLKPEDSAVYYCNARNYYYPSDRDYWGQGTQVTVSS”: the “polyreactivity (PSR sort gate)” value is listed as “low polyreactivity”.

With “QVQLVESGGGLVQAGGSLRLSCAATRRIFRRNPMGWYIQAPGKERELVATISANGGSTYYADSVKGRFTISRDNAKNTVYLQMNSLKPEATAVYYCAAQGWSWYWYQKIYYWGQGTQVTVSS”, the “polyreactivity (PSR sort gate)” value is given as “high polyreactivity”.

Regarding “QVQLVESGGGLVQAGGSLRLSCAASGFIFSRYVMGWYRQAPGKERELVAAISSSGGRTYYADSVKGRFTISRDNAKNTVYLQMNCLKPEDTAVYYCAAKPLPGGADTTSPRYDYWGQGTQVTVSS”, the “polyreactivity (PSR sort gate)” value is listed as “high polyreactivity”.

For the sequence “QVQLVESGLGLVQAAGSLRLSCAASGSILYSYAMGWYRQAPGKERELFAAITGAGASTNYADSVKGRFTISRDNGKNTVYLQMNSLKPEDTAVYYCNAEYNPYHYYKAWVYTYDYGYWGQGTQVTVSS”, the “polyreactivity (PSR sort gate)” value is listed as “low polyreactivity”.

On to “QVQLVESGGGLVQAGGSLRLSCAASGYIFTPYAMGWYRQAPGKERELVAAITGSGSSTYYADSVKGRFTISRDNAKNTVYLQMNSLKPEDTAGYYCAADSYGFYGYYYYELEYWGQGTQVTVSS”, for which the “polyreactivity (PSR sort gate)” value is given as “low polyreactivity”.

As for “HVQLVESGGGLVQAGGSLRLSCAASGFTFGYYAMGWYRQAPGKERELVAAISSSGGSTYYADSVKGRFTISRDNAKNTVYLQMNSLKPEDTAVYFCAVVVFSRVYRYFTSDYWGQGTQVTVSS”, the “polyreactivity (PSR sort gate)” value is recorded as “high polyreactivity”.

Turning to “QVQLVESGGGLVQAGGSLRLSCAASGSIFDLYVMGWYRQAPGKERELVAAISLIGGSTSYADSVKGRFTISRDNEKNTVYLHRKSLKPEDTAVYYCAVEKFFRAEYDHWGLGTQVTVSS”, the “polyreactivity (PSR sort gate)” value is “low polyreactivity”.

“QVQIVESGGGLVQAGGSLRLSCASSGSTFTHYAMGWYRQAPGKERELVAGISWGGSSTYYADSVKGRFTISRDNAKNTVYLQMNSLKPEDTAVYYCAAGRRGSYPGGYGYWGQGTQVTVSS”: the “polyreactivity (PSR sort gate)” value was “low polyreactivity”.

Take “QVQLVESGGGLVQAGGSLRLSCAASGIIFAYNTMGWYRQAPGKARELVAAITYRGGRTYYADSVKGRFRISRDNAKNTFYLQMNSLKPEDTAVYYCAAGRGVYSYGYNYWGHGTQVTVSS”: the “polyreactivity (PSR sort gate)” value is given as “high polyreactivity”.

For the sequence “QVQLVESGGGLVQAGGSLRLSCAASGSIFSGYAMGWYRQAPGKERELVAALTRSGGRTYYADSVKGRFTISRDNAKNTVYLQMNSLKPEDTSVYYCATLPRYYGYWGQGTQVTVSS”, the “polyreactivity (PSR sort gate)” value is recorded as “high polyreactivity”.

“QVQLVESGGGLVQAGGSLRLSCAASGSIFAYAMGWYRQAPGKQRELVAGISSSGGRTYYADSVKGRFTISRDNAKNSVYLQMNSLKPEDTAVYYCAARAQSPPYGYWGQGTQVTVSS”: the “polyreactivity (PSR sort gate)” value is “high polyreactivity”.

Consider “QVQLVESGGGLVQAGGSLRLSCAASGNTSVPYAMGWYRQAPGKERELVARITWSTGRTYYADSVKGRFTISRDNAKNTVYLQMNSLKPVDTAVYYCATEAWLPGSGGDYWGQVTQVTVSS”, for which the “polyreactivity (PSR sort gate)” value is reported as “low polyreactivity”.

“QVQLVESGGGLVQAGGSLRLSSAASGRTFYSNAMGWYRQAPGKEREFVAAINWSGTSTYADSVKGRFTISRDNAKNTVYLQMNSLKPEDTAVYYCAKTYRTLVRYWGQPFGYWGQGTQVTVSS”: the “polyreactivity (PSR sort gate)” value is given as “high polyreactivity”.

“QVQLVESGGGLVQAGGSLRLSCAPSGRIFYSNDMGWYRQAPGKERELVAAIRDSAGSTRYADSVKGRFTISRVNAKNTVYLQMNSLKPEDTAVFYGHKDYVSIYFEYLDDYWGQGTQVTVSS”: the “polyreactivity (PSR sort gate)” value is “low polyreactivity”.

For the sequence “QVQLVESGGGLVQAGGSLRLSCAASGSIFLSNAMGCYRQAPGKEREIVADIDWTGGDTYYADSVKGRFTISRDNAKNTVYLQMNSLKPEDTAVYYCAADYGYRNLLTEYSYWGQGTQVTVSS”, the “polyreactivity (PSR sort gate)” value is given as “low polyreactivity”.

As to “QVQLVESGGGLVQAGGSLRLSCAASGGTFGSYAMGWYRQAPGKERELVAAIRSGDRTYYADSVKGRFTISRDNAKNTVYLQMNSLKPEDTAVYYCAKLRYPYLFWDDSEYWGQGTQVTVSS”, the “polyreactivity (PSR sort gate)” value is listed as “low polyreactivity”.

For the sequence “QVQLVESGVGLVQAVGSLRLSCAASGSTFPWYAMGWYRQAPGKERSLVAGSSEGGGSTYYADSVKGRFTISRDNAKNTVYLQMNRLKPEDTAVYYCAADQVGAVYWVGEYGYWGQGTQVTVAS”, the “polyreactivity (PSR sort gate)” value is recorded as “low polyreactivity”.

Take “QVQLVESGGCLVQAGGSLRLSCAASGRIFQAYAMGWYRQAPGKERELVAAINRSGNTNYADSVKGRFTISRDNAKNTVYLQMNSLKPEDTAVYYCAADAVSFSYFGYQRMDYWGQGTQVTVSS”: the “polyreactivity (PSR sort gate)” value is “low polyreactivity”.

In the case of “QVQLVESGGGLFQAGGSLRLSCAASGIIFRGNAMGWYRQATVKERELVAAISKSGGRTYYADSVKGRFTISRDNAKNTVYLEMICLKPEDSAVYYCAARFYAVGGYDYWGQGTQVTVSS”, the “polyreactivity (PSR sort gate)” value is reported as “high polyreactivity”.

As for “QVQLVESGGGLVQAGGSLRLSCAASGRTFAYYAMGWYRQAPGTERELVAGITYSGGRTYYADSVKGRFTISRDNAKNTVYLQMNSLKPEDTAVYYCATRWPSKPTSRAMYYWGQGTQVTVSS”, the “polyreactivity (PSR sort gate)” value is listed as “high polyreactivity”.

For the sequence “QVQLVESGGGLVQAGGSLRLSCAASGFTFFHYAMGWYRQAPGKERELVAAIDYSAGSTYYADSVKGRFTISRDNAKNTVYLQMNSMKPEDTAVYYCAADARTSRGRRYYYWGQGTQVTVSS”, the “polyreactivity (PSR sort gate)” value is listed as “low polyreactivity”.

“QVQLVESGGGLVQAGGSLRLSCAASGRTFSVNAMGWYRQAPGKERELVAAISWDGGSTYYADSVKGRFTISRDNAKNTDYLQMNSLKPEDTAVYYCNKDLYYAYDYWRQGTQVTVSS”: the “polyreactivity (PSR sort gate)” value is listed as “low polyreactivity”.

“QVQLVESGGGLVQAGRSLRLSCAASGFIFGHNAMGWSRQAPGKERELFAAIRSRGGSTYYADSVKGRFTISRDNAKNTVYLQMNSLKREDTAVYYCAADGAVVSSSRKFVYWGQGTQVTVSS”: the “polyreactivity (PSR sort gate)” value is on record as “low polyreactivity”.

“QVQLVESGGGLVQAGGSLRLSCAASGFTFYYYAMGWYRQAPGKERELVARITSGGSTYYADSVKGRFTISRDNAKNTVYLQMISLKPEDTAVYYCNVDVSVEVAYWGQGTQVTVSS”: the “polyreactivity (PSR sort gate)” value was “low polyreactivity”.

With “QVQLVESGGALVQAGGRLRLSCAASGSILVTNDMGLYRQAPGKDRELEAAICWSGGSTYYADSVKGRFTISRDNAKNSVYLQMNSLKPEDTAVYYCAAGLGFLFARQALEFDYWGQGTKVTVSS”, the “polyreactivity (PSR sort gate)” value is listed as “low polyreactivity”.

For the sequence “QVQLVESGGGLVQPGGSLRLSCAASGIIFGYYAMGWYRQAPGKERVLDAAISWSGGSTYYADSVKGRVTISRDNAKNTVYFQMNSLKPEDTAVYYCAAVVRRKSGNDTWRYNYWGQGTQVTVSS”, the “polyreactivity (PSR sort gate)” value is “high polyreactivity”.

Consider “QVQLVESGGGLVQAGGSLRLSCAASGRTFFPYGMGWYRQAPGKERELVATISWSGGSTHYADSVKGRFTISRDNAKNTVYLQMNSLKPEDTAVYYCAAGNSLYWYNSGNYWGQGTQVTVSS”, for which the “polyreactivity (PSR sort gate)” value is listed as “low polyreactivity”.

For the sequence “QVQLVESGGGLVQAGGSIRLSCAASGFTFDQYAMGWYRQAPGKERELVAAISSGTRTYYADSVKGRFTISRDNAKNTVYLQMNSLKPEDTAVYYCIARSVRYRDLYDYWGQGTQVTVSS”, the “polyreactivity (PSR sort gate)” value was “low polyreactivity”.

Regarding “QVQLVESGGGLVQAGGSLRLSCAASGFTLRKYVMGWYRQAPGKERELVAAITSSASSTYYADTVKGRFTISRDNAKNTVYLQMNSMKPEDTAVYYCAARGRPYRGSYYWGQGTQVTVSS”, the “polyreactivity (PSR sort gate)” value is listed as “high polyreactivity”.

Turning to “QVQLVESVVGLVQAGGSLRLSSAASGRIFNQYGMGWYRQSPGKESELVAAIRSGDSTNYADSVKGRFTISRDNAKNTVYLQMNSLKPEDTAVYYCARDLPGDYAGFDYWGQGTQVTVSS”, the “polyreactivity (PSR sort gate)” value was “low polyreactivity”.

For the sequence “QVQLVESVGGLVQAGGSLRLSCAASGSTFGIYTMGWYRQAPGKERELVAAISSRGGSTYYADSVKGRFTISRDNAKNTVYLQMNSLKPEDTAVYYCAAVGRSHSRPYTDEYWGQGTQVTVSS”, the “polyreactivity (PSR sort gate)” value is on record as “high polyreactivity”.

In the case of “QVQIVESGGGLVQAGGSLRLSCTASGRIFYRYAMGWYRQAPGKERELVAAIRYSGGRTYYADSVKGRFTISRDNAKNTVYLQMNSLKQEDTAVYYCAADGQWYYAPFRGGVYENDYWGQGTQVTVSS”, the “polyreactivity (PSR sort gate)” value is recorded as “low polyreactivity”.

For the sequence “QVQLHESGGGLVQAGGSQRLSCASSGYIFYFQYMGWYRQAPGKEREFVAAISDGANTNYADSVKGRFTISRDNAKNTEYLQMNSLKPEDTAVYYCNADQYYWYEYDYWGQGTQVTVSS”, the “polyreactivity (PSR sort gate)” value is recorded as “low polyreactivity”.

Take “QVQLVESGGGLVQAGGSLRLICAASGLTFTYYAMGWYRQAPGKERELVATISSSGRTNYADSVKGRFTISRDNAKNTVYLQMNSLKPEDTAVYYCAATLYHYWYADFDYWGQGTQVTVSS”: the “polyreactivity (PSR sort gate)” value is “high polyreactivity”.

Take “QVQLVESGAGLVQAGGSLRLSCAASGFIFFYYAMGWYRQAPGKERELVAAISASGGSTYYADSVKGRFTISRDNAKNTVYLQLNSLKPEDTAVYYCAARYRKAESARWEYDYWGQGTQVTVSS”: the “polyreactivity (PSR sort gate)” value is given as “high polyreactivity”.

In the case of “QVQLVESGGGLVQAGGSLRLSCAASGSTFYHNAMGWYRQAPGKERELVAAITTSGGSTYYADSVKGRFTISRDNAKNTVYLQMNSLKPEDTAVYYCNVYRPYLAPYDYWGQGTQVTVSS”, the “polyreactivity (PSR sort gate)” value is recorded as “low polyreactivity”.

Turning to “QVQLVESGGGLVQAGGSLRLSCAASGFIFRFYAMGWYRQAPGKERELVAAISSDGSTNYADSVKGRFTISRDNAKNTVYLQMNSLKPEDTAVYYCNADYYEYYSGPTLVVYIYGYWGQGTQVTVSS”, the “polyreactivity (PSR sort gate)” value is recorded as “low polyreactivity”.

The record behind these values is the nanobody polyreactivity screen of Harvey et al. (2022).
